{"source": "paper PMC4702141", "about": "(Scientific Reports, 2016)", "binders": {"B1": {"name": "mouse GDF-6 (ligand, UniProt P43028 335-454, looked up)", "chain": "TAFASRHGKRHGKKSRLRCSRKPLHVNFKELGWDDWIIAPLEYEAYHCEGVCDFPLRSHLEPTNHAIIQTLMNSMDPGSTPPSCCVPTKLTPISILYIDAGNNVVYKQYEDMVVESCGCR", "notes": "Growth differentiation factor 6, mouse, recombinant; source: bought: R&D Systems"}, "B2": {"name": "BMPRIA-Fc (Fc fusion)", "chain": "QNLDSMLHGTGMKSDSDQKKSENGVTLAPEDTLPFLKCYCSGHCPDDAINNTCITNGHCFAIIEEDDQGETTLASGCMKYEGSDFQCKDSPKAQLRRTIECCRTNLCNQYLQPTLPPVVIGPFFDGSIR", "modifications": "Extracellular domain; C-terminal human IgG Fc (left out) makes a disulfide-linked dimer. The protein was bought from R&D Systems with species and limits not given; human is taken as the likeliest …"}, "B3": {"name": "recombinant BMPRIB-Fc (Fc fusion, mouse, UniProt P36898 14-126, looked up)", "chain": "KKEDGESTAPTPRPKILRCKCHHHCPEDSVNNICSTDGYCFTMIEEDDSGMPVVTSGCLGLEGSDFQCRDTPIPHQRRSIECCTERNECNKDLHPTLPPLKDRDFVDGPIHHK", "notes": "BMPRIB (ALK6), mouse, extracellular domain; cDNA fragment NM_007560.3, 4-378 bp, from FANTOM cDNA clones (RIKEN); also called ALK6; source: 293F cells, transfected, purified from culture supernatant (Protein A columns)"}, "B4": {"name": "mouse GDF-5 (ligand, UniProt P43027 376-495, looked up)", "chain": "APLANRQGKRPSKNLKARCSRKALHVNFKDMGWDDWIIAPLEYEAFHCEGLCEFPLRSHLEPTNHAVIQTLMNSMDPESTPPTCCVPTRLSPISILFIDSANNVVYKQYEDMVVESCGCR", "notes": "Growth differentiation factor 5, mouse, recombinant; source: bought: R&D Systems"}}, "assay_in_all_cases": "SPR; BMPRIA-Fc or BMPRIB-Fc captured with an anti-human Fc IgG capture kit; ligands injected at 25 °C, 30 μL/min; HBS-EP (+) running buffer; single-cycle kinetics, 1:1 binding model, Biacore T100; average of 2 or 3 independent analyses", "key": {"[1]": {"biological_target": "B3", "details": "both partners purified"}, "[2]": {"biological_target": "B2", "details": "both partners purified"}, "[3]": {"biological_target": "T1, mouse GDF-7 (mouse, UniProt P43029 316-461)", "T1 construct": "Growth differentiation factor 7, mouse, recombinant; source: bought: R&D Systems", "T1 sequence (looked up)": "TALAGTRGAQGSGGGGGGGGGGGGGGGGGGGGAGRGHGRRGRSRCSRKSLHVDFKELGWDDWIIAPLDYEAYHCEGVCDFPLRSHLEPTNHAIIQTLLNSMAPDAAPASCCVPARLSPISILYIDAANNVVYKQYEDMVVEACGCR", "details": "both partners purified"}, "[4]": {"biological_target": "T2, human BMP6 (human, UniProt P22004 375-513)", "T2 construct": "Bone morphogenetic protein 6, human, recombinant; source: bought: R&D Systems", "T2 sequence (looked up)": "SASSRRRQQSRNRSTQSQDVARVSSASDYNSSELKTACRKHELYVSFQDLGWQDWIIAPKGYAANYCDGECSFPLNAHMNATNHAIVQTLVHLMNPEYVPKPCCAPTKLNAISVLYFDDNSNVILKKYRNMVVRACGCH", "details": "both partners purified"}, "[5]": {"biological_target": "B1", "details": "both partners purified"}, "[6]": {"biological_target": "T3, human BMP7 (human, UniProt P18075 293-431)", "T3 construct": "Bone morphogenetic protein 7, human, recombinant; source: bought: R&D Systems", "T3 sequence (looked up)": "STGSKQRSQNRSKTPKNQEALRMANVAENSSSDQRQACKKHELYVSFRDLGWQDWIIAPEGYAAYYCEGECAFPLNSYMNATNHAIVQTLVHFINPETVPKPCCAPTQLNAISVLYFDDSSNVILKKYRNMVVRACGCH", "details": "both partners purified"}, "[7]": {"biological_target": "T4, human BMP4 (human, UniProt P12644 293-408)", "T4 construct": "Bone morphogenetic protein 4, human, recombinant; source: bought: R&D Systems", "T4 sequence (looked up)": "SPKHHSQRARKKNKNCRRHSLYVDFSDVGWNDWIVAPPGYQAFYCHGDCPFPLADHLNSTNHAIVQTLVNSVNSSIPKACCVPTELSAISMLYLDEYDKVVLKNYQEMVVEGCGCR", "details": "both partners purified"}, "[8]": {"biological_target": "T5, human BMP2 (human, UniProt P12643 283-396)", "T5 construct": "Bone morphogenetic protein 2, human, recombinant; source: bought: R&D Systems", "T5 sequence (P12643 283-396)": "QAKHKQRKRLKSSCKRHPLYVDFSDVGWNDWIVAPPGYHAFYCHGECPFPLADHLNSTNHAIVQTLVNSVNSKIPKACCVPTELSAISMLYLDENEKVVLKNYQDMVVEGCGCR", "details": "both partners purified"}, "[9]": {"biological_target": "B4", "details": "both partners purified"}, "[10]": {"biological_target": "T6, BMPRIA-Fc, P36895", "T6 chain": "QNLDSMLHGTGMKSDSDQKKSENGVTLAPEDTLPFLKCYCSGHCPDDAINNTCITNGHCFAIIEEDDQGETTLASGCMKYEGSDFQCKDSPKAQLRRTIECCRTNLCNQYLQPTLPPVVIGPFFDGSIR", "details": "remark: other sources report otherwise"}}, "data": [{"binder": "human BMP10 (ligand, UniProt O95393 317-424, looked up, Bone morphogenetic protein 10, human, recombinant; source: bought: R&D Systems) NAKGNYCKRTPLYIDFKEIGWDSWIIAPPGYEAYECRGVCNYPLAEHLTPTKHAIIQALVHLKNSQKASKACCVPTKLEPISILYLDKGVVTYKFKYEGMAVSECGCR", "values": [{"measurement": "Kd", "setting": "[1]", "result": 0.00945, "unit": "nM"}]}, {"binder": "B1", "values": [{"measurement": "Kd", "setting": "[2]", "result": 0.48, "unit": "nM"}]}, {"binder": "B2", "values": [{"measurement": "Kd", "setting": "[3]", "result": 0.432, "unit": "nM"}, {"measurement": "Kd", "setting": "[4]", "result": 0.0792, "unit": "nM"}]}, {"binder": "B3", "values": [{"measurement": "Kd", "setting": "[3]", "result": 0.209, "unit": "nM"}, {"measurement": "Kd", "setting": "[5]", "result": 0.159, "unit": "nM"}, {"measurement": "Kd", "setting": "[6]", "result": 0.268, "unit": "nM"}, {"measurement": "Kd", "setting": "[7]", "result": 0.221, "unit": "nM"}, {"measurement": "Kd", "setting": "[8]", "result": 0.00248, "unit": "nM"}, {"measurement": "Kd", "setting": "[4]", "result": 0.00035, "unit": "nM"}, {"measurement": "Kd", "setting": "[9]", "result": 0.129, "unit": "nM"}]}, {"binder": "human BMP7, P18075 293-431 (ligand, here or on the partner: Extracellular domain; C-terminal human IgG Fc (left out) makes a disulfide-linked dimer. The protein was bought from R&D Systems with species and limits not given; human is taken as the likeliest pr) STGSKQRSQNRSKTPKNQEALRMANVAENSSSDQRQACKKHELYVSFRDLGWQDWIIAPEGYAAYYCEGECAFPLNSYMNATNHAIVQTLVHFINPETVPKPCCAPTQLNAISVLYFDDSSNVILKKYRNMVVRACGCH", "values": [{"measurement": "Kd", "setting": "[10]", "result": 1.95, "unit": "nM"}]}, {"binder": "B4", "values": [{"measurement": "Kd", "setting": "[2]", "result": 1.63, "unit": "nM"}]}]}
